Data reported in patent US20090098076A1, “Method For the Production of a Keratin-Binding Effector Molecule” (BASF SE, priority 2005, published 2009).

Experiments:
[1] = test system: skin keratin; test: Qualitative binding to skin (adhesive tape keratin layer, Examples 8 and 14); conditions: transparent adhesive tape with human skin keratin layer; negative control buffer only
Procedure: A visual qualitative test was developed in order to examine whether KBD binds to skin.
Blocking solution: Western Blocking Reagent 1921673 Roche (10× solution) diluted in TBS.
TBS: 20 mM Tris; 150 mM NaCl pH 7.5
The first step is the transfer of the outer keratin layer of the skin to a stable support. For this purpose, a transparent adhesive tape is firmly applied to depilated human skin and removed again. The test can be carried out directly on the transparent adhesive strip, or the adhering keratin layer can be transferred to a glass slide through renewed adhesion.
A visual qualitative test was used in order to examine whether the KBD-D (SEQ ID No.: 168) binds to skin.
Blocking solution: Western Blocking Reagent 1921673 Roche (10× solution) diluted in TBS
A blue colored precipitate, being a reaction of the antipolyhistidine-AP conjugate interacting with the KBD-D, was visible on the transparent adhesive tape treated with KBD-D. As negative control, a transparent adhesive tape was treated only with buffer. No significant blue coloration could be seen here.

[2] = target: human hair keratin (human hair, cut into 5 mm sections) (human); test: quantitative hair binding test, loss relative to untreated hair after 10% strength SDS treatment
[3] = target: human skin keratin (human); test: quantitative skin binding test (human keratinocytes in microtiter plates), anti-His antibody, TMB; conditions: scale: absorption at 405 nm, standardized to the surface
[4] = target: human skin keratin (human); test: quantitative skin binding test, loss relative to untreated skin after 10% strength SDS treatment
[5] = target: human hair keratin (human hair, cut into 5 mm sections) (human); test: quantitative hair binding test, anti-polyHis peroxidase conjugate, TMB; after 10% strength SDS treatment; conditions: scale: absorption at 405 nm, standardized to the surface
[6] = test system: hair (human); test: Quantitative binding to hair (Example 15)
Procedure: (§1) In order to investigate the binding strength of the KBD-D (SEQ ID No.:168) to skin and hair compared to the KBD-B (SEQ ID No.:166), a quantitative test was carried out. In this test firstly hair was incubated with KBD-B or KBD-D and excess KBD-D or -D was washed off. An antibody-peroxidase conjugate was then coupled via the His/tag of the KBD-B or -D. Nonbound antibody-peroxidase conjugate was washed off again. The bound antibody-peroxidase conjugate can convert a colorless substrate (TMB) into a colored product, which was measured photometrically at 405 nm. The intensity of the absorption indicates the amount of bound KBD-B or -D.
In order to characterize the hair binding of the KBD-D compared to the KBD-B, the following binding assay was carried out:
5 mg of hair (human) were cut into sections 5 mm in length and transferred to Eppendorf vessels (protein low-bind). • addition of 1 ml of ethanol for degreasing • centrifugation, removal of ethanol and washing of the hair with H2O • centrifugation, removal of the supernatant • addition of the keratin-binding domains to be tested (coupled to tag—e.g. His6, HA etc.) in 1 ml of PBS/0.05% Tween 20; incubation for 2 h at room temperature with gentle swinging movements • centrifugation, removal of the supernatant • 3× washing with PBS/0.05% Tween 20 • incubation with 1 ml monoclonal mouse anti-tag-(His6 or HA) antibodies with peroxidase conjugate (1:2000 in PBS/0.05% Tween 20) [Monoclonal AntipolyHistidine Peroxidase Conjugate, produced in mouse, lyophilized powder, Sigma] for 2-4 h at room temperature, gentle swinging movement • 3× washing with PBS/0.05% Tween 20 • addition of peroxidase substrate (1 ml/Eppendorf vessel) • allow reaction to proceed until blue coloration (90 seconds). • stop the reaction with 100 μl of 2 M H2SO4.
The absorption was measured at 405 nm
(§2) Peroxidase Substrate (Prepared Shortly Beforehand):
0.1 ml TMB solution (42 mM TMB in DMSO) +10 ml substrate buffer (0.1 M sodium acetate pH 4.9) +14.7 μl H2O2 3% strength BSA=bovine serum albumin PBS=phosphate buffered salt solution Tween 20=polyoxyethylene sorbitan monolaureate, n about 20 TMB=3,5,3′,5′-tetramethylbenzidine

[7] = target: human skin keratin (human); test: quantitative skin binding test (human keratinocytes in microtiter plates), anti-His antibody, TMB; after 10% strength SDS treatment; conditions: scale: absorption at 405 nm, standardized to the surface
[8] = target: human hair keratin (human hair, cut into 5 mm sections) (human); test: quantitative hair binding test, anti-polyHis peroxidase conjugate, TMB; conditions: scale: absorption at 405 nm, standardized to the surface
[9] = test system: human keratinocytes; test: Quantitative binding to skin (Example 15)
Procedure: as §1
The test for binding to skin was carried out with human keratinocytes in microtiter plates as follows. • 2× washing with PBS/0.05% Tween 20 • addition of 1 ml of 1% BSA in PBS and incubation for 1 h at room temperature, gentle swinging movements (900 rpm). • removal of the supernatant • addition of 100 μg of KBD in PBS with 0.03% Tween 20; incubation for 2 h at room temperature and gentle swinging movements (900 rpm). • removal of the supernatant • 3× washing with PBS/0.05% Tween 20 • incubation with 1 ml of monoclonal mouse anti-tag-His6 antibodies for 2-4 h at room temperature, gentle swinging movement (900 rpm) • 3× washing with PBS/0.05% Tween 20 • addition of peroxidase substrate (1 ml/Eppendorf vessels composition see below) reaction until a blue coloration (about 90 seconds). • reaction stopped with 100 μl of 2 M H2SO4. • the absorption was measured at 405 nm.
as §2
0.1 ml TMB solution (42 mM TMB in DMSO) +10 ml substrate buffer (0.1 M sodium acetate pH 4.9) +14.7 μl H2O2 3% strength

[10] = values standardized to the surface, after 10% strength SDS treatment
[11] = values standardized to the surface, no SDS treatment

binding to skin keratin (blue colored precipitate) [1]: has bound to the skin keratin
Relative absorption loss after 10% strength SDS treatment in % [2]: 30%
Absorption at 405 nm [3]: 3.69
Relative absorption loss after 10% strength SDS treatment in % [4]: 15%
Absorption at 405 nm [5]: 0.62
Relative absorption loss after 10% strength SDS treatment in %, hair ([6]; relative to untreated hair): 30%
binding to hair (in words) ([6]; summary of Tab. 10): can bind to hair
Absorption at 405 nm, binding to hair after 10% strength SDS treatment [6, 10]: 0.62
Absorption at 405 nm, binding to hair [6, 11]: 0.88
Absorption at 405 nm [7]: 3.15
Absorption at 405 nm [8]: 0.88
Relative absorption loss after 10% strength SDS treatment in %, skin ([9]; relative to untreated skin): 15%
binding to skin compared with hair (in words) ([9]; summary of Tab. 10): more strongly to skin
Absorption at 405 nm, binding to skin after 10% strength SDS treatment [9, 10]: 3.15
Absorption at 405 nm, binding to skin [9, 11]: 3.69
influence of washing with SDS solution on binding ([9]; washing with an up to 10% strength SDS solution, in contrast to KBD-B): only more weakly influenced
B1: KBD-D (keratin-binding domain of human plakophilin) with N-terminal histidine anchor (SEQ ID No.: 168) (protein)
chain: MRGSHHHHHHGSACELGTMNHSPLKTALAYECFQDQDNSTLALPSDQKMKTGTSGRQRVQEQVMMTVKRQKSKSSQSSTLSHSNRGSMYDGLADNYNYGTTSRSSYYSKFQAGNGSWGYPIYNGTLKREPDNRRFSSYSQMENWSRHYPRGSCNTTGAGSDICFMQKIKASRSEPDLYCDPRGTLRKGTLGSKGQKTTQNRYSFYSTCSGQKAIKKCPVRPPSCASKQDPVYIPPISCNKDLSFGHSRASSKICSEDIECSGLTIPKAVQYLSSQDEKYQAIGAYYIQHTCFQDESAKQQVYQLGGICKLVDLLRSPNQNVQQAAAGALRNLVFRSTTNKLETRRQNGIREAVSLLRRTGNAEIQKQLTGLLWNLSSTDELKEELIADALPVLADRVIIPFSGWCDGNSNMSREVVDPEVFFNATGCLRNLSSADAGRQTMRNYSGLIDSLMAYVQNCVAASRCDDKSVENCMCVLHNLSYRLDAEVPTRYRQLEYNARNAYTEKSSTGCFSNKSDKMMNNNYDCPLPEEETNPKGSGWLYHSDAIRTYLNLMGKSKKDATLEACAGALQNLTASKGLMSSGMSQLIGLKEKGLPQIARLLQSGNSDVVRSGASLLSNMSRHPLLHRVMGNQVFPEVTRLLTSHTGNTSNSEDILSSACYTVRNLMASQPQLAKQYFSSSMLNNIINLCRSSASPKAAEAARLLLSDMWSSKELQGVLRQQGFDRNMLGTLAGANSLRNFTSRF
